This assay addresses PP1G(7–300) (mouse) (UniProt P63087).

Bounds are passed on as bounds.

These results are taken from article PMC4394352.

Regarding “eIF2a^P (1–185) R66E; K86E double mutant (domain or fragment)”, the dephosphorylation as a substrate of the PPP1R15B-MBP-PP1-actin ternary complex, against wildtype eIF2a^P (Figure 8B) was > 10 fold and the dephosphorylation as a substrate of the PPP1R15B-MBP-PP1 binary complex, against wildtype eIF2a^P (Figure 8B) stood at 2 fold.
